Patent US20190127451A1

Biological target: alternative-spliced domain A1 of human Tenascin C (human) (UniProt P24821)
Experiment: SPR (BIAcore), antibody over hTnC A1 on CM5 chip, fitted 50 nM curves

UniProt P24821, sequence (P24821 1072-1162): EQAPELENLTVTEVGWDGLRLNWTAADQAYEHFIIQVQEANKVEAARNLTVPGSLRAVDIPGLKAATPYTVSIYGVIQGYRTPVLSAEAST

B1: IgG(F16)-3S-N88Q (antibody, V domains shown)
VH: EVQLLESGGGLVQPGGSLRLSCAASGFTFSRYGMSWVRQAPGKGLEWVSAISGSGGSTYYADSVKGRFTISRDNSKNTLYLQMNSLRAEDTAVYYCAKAHNAFDYWGQGTLVTVSS
VL: SSELTQDPAVSVALGQTVRITCQGDSLRSYYASWYQQKPGQAPVLVIYGKNNRPSGIPDRFSGSSSGNTASLTITGAQAEDEADYYCQSSVYTMPPVVFGGGTKLTVLG
modifications: glycosylated Heavy Chain (site not given)
fold lower apparent KD than wild-type IgG(F16)-3S: 4 to 8 fold
